These results are taken from patent CN114075278A.

For assay [1], the target named is 流感A抗原. The assay is described as follows: sandwich ELISA: antibody at 2500 ng/ml captured on goat anti-mouse IgG, Flu-A antigen, HRP-labelled paired mAb.
In assay [2] the target is 流感A抗原. The assay is described as follows: sandwich ELISA: antibody at 1250 ng/ml captured on goat anti-mouse IgG, Flu-A antigen, HRP-labelled paired mAb. In general terms: ELISA stands for enzyme-linked immunosorbent assay.
Assay [3] deals with 流感A抗原. The assay is described as follows: sandwich ELISA: antibody at 625 ng/ml captured on goat anti-mouse IgG, Flu-A antigen, HRP-labelled paired mAb.
In assay [4] the target is 流感A抗原. The assay is described as follows: sandwich ELISA: antibody at 312.5 ng/ml captured on goat anti-mouse IgG, Flu-A antigen, HRP-labelled paired mAb.
The target of assay [5] is 流感A抗原. The assay is described as follows: biolayer interferometry, AMC sensors, antibody immobilised, antigen in a dilution series.
Assay [6] concerns the target 流感A抗原.
Assay [7] concerns the target 流感A抗原. In words: sandwich ELISA: antibody at 5000 ng/ml captured on goat anti-mouse IgG, Flu-A antigen, HRP-labelled paired mAb.

Read-outs that look alike come from different tables or passages of the source.

B1: 实施例1的抗Flu-A抗体(WT) (antibody, V domains shown)
VH: EVQLQQSGPELVKPGASVKISCKASGFSFSGYYLHWVRQSPLKSLEWIGRINPYNGGTTYNQDFKGKASLTVDKSSSTAYMELHSLTSEDSAVYYCARYSSVDAMDYWGQGTSVTVSS
VL: QIVLTQSPAIMSASLGERVTMTCTGSSSVLSSYLHWYQQKPGSSPKLWIYSSSNLASGVPARFSGSGSGTSYSLTISSMEAEDAATYYCQQWHRSPWTFGGGTKLEIKR
For B1, the OD450 (ref 630 nm) was 1.39 OD with 流感A抗原 [1]; 0.946 OD in the assay with 流感A抗原 [2]; 0.754 OD with 流感A抗原 [3]; 0.535 OD with 流感A抗原 [4]; above 1 OD with 流感A抗原 [6]; 1.73 OD with 流感A抗原 [7]. The Kd – broadly, the free concentration of one partner at which half of the binding sites on the other are occupied at equilibrium, for simple one-to-one binding – in the assay with 流感A抗原 [5] is 40.5 nM.
